Test results taken from paper PMC8924211 (Nature Communications, 2022).

What was measured:
Test in all cases: AlphaScreen or HTRF; saturation binding: HEK293 cells transfected with SNAP-tagged receptor (WT or mutant) and labelled with SNAP-Lumi4-Tb, incubated with increasing concentrations of galanin-A2 in the presence or absence of 100 uM unlabeled galanin, 1 h at room temperature; HTRF ratio 665 nm/620 nm
Settings in all cases: one partner purified
SNAP-GAL1R R285^7.35A = molecular target: T1, SNAP-GAL1R R285^7.35A (human, UniProt P47211 1-349, R285^7.35A, Lumi4-Tb on the SNAP tag)
T1 construct: also called R285A; source: HEK293, transfected, on cells; not shown: SNAP tag, N-terminal, kept
T1 sequence (looked up): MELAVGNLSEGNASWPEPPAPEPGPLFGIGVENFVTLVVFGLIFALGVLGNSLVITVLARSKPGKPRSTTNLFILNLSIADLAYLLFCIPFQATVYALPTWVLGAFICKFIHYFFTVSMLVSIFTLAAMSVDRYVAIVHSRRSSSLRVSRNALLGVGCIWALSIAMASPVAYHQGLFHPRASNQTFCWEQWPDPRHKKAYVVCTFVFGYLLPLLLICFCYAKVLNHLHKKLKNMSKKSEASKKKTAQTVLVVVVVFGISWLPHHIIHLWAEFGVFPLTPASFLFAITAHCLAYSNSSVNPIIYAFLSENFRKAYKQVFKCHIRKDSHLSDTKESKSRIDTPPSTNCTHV

SNAP-GAL1R I266^6.54A = molecular target: T2, SNAP-GAL1R I266^6.54A (human, UniProt P47211 1-349, I266^6.54A, Lumi4-Tb on the SNAP tag)
T2 construct: also called I266A; source: HEK293, transfected, on cells; not shown: SNAP tag, N-terminal, kept
T2 sequence (looked up): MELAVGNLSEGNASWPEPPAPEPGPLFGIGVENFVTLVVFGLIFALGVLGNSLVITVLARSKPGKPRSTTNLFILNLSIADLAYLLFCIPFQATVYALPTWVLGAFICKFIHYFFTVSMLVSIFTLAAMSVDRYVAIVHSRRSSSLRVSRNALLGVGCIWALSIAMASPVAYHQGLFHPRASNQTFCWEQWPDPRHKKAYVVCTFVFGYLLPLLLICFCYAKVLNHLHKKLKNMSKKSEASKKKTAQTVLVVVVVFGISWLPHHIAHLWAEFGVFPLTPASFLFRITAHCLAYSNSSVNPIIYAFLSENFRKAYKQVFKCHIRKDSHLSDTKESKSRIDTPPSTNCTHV

SNAP-GAL1R H263^6.51A = molecular target: T3, SNAP-GAL1R H263^6.51A (human, UniProt P47211 1-349, H263^6.51A, Lumi4-Tb on the SNAP tag)
T3 construct: also called H263A; source: HEK293, transfected, on cells; not shown: SNAP tag, N-terminal, kept
T3 sequence (looked up): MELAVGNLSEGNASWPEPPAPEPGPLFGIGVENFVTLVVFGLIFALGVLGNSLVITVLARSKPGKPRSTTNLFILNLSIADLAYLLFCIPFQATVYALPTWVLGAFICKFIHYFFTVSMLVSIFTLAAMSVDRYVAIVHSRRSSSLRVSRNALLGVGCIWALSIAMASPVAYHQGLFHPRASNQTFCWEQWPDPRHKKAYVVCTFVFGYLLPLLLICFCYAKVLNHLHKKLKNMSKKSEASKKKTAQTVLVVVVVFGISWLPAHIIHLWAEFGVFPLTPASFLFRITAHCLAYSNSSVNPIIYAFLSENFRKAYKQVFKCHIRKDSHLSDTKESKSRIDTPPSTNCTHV

SNAP-GAL1R Q174^4.64A = molecular target: T4, SNAP-GAL1R Q174^4.64A (human, UniProt P47211 1-349, Q174^4.64A, Lumi4-Tb on the SNAP tag)
T4 construct: also called Q174A; source: HEK293, transfected, on cells; not shown: SNAP tag, N-terminal, kept
T4 sequence (looked up): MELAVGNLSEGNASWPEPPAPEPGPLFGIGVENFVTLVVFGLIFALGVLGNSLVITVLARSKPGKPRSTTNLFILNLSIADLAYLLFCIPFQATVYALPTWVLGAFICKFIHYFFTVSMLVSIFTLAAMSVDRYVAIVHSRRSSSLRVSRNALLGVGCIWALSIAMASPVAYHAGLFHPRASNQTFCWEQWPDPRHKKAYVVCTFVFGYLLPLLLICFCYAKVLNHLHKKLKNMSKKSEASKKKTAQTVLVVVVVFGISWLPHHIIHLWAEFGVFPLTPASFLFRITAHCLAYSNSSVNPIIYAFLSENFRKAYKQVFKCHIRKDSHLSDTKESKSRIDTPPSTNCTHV

SNAP-GAL1R H289^7.39A = molecular target: T5, SNAP-GAL1R H289^7.39A (human, UniProt P47211 1-349, H289^7.39A, Lumi4-Tb on the SNAP tag)
T5 construct: also called H289A; source: HEK293, transfected, on cells; not shown: SNAP tag, N-terminal, kept
T5 sequence (looked up): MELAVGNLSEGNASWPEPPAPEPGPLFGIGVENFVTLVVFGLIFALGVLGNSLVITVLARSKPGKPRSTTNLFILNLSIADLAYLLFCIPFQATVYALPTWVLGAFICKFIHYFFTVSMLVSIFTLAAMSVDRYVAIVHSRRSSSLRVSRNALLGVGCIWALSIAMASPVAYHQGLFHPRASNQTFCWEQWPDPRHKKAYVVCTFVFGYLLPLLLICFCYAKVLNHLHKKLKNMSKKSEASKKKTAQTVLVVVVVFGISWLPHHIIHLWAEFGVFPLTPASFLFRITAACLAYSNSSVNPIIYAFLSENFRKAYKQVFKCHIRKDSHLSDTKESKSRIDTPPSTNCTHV

B1: galanin-A2 (full-length galanin labeled with the dye A2 on an additional cysteine at the C-terminal end) (peptide)
peptide: GWTLNSAGYLLGPHAVGNHRSFSDKNGLTSC
modifications: dye A2 on the additional C-terminal cysteine
notes: numbers count on: the mature protein; additional cysteine at the C-terminal end of the peptide, carries the dye A2; source: synthetic peptide (synthesized by Vazyme, China)
- Kd (SNAP-GAL1R R285^7.35A): 159 nM
- Kd (SNAP-GAL1R I266^6.54A): 245 nM
- Kd (SNAP-GAL1R H263^6.51A): 213 nM
- Kd (SNAP-GAL1R Q174^4.64A): 351 nM
- Kd (SNAP-GAL1R H289^7.39A): 136 nM
